Residue numbers refer to the chain shown, from its start.
B1: 5E9 (antibody, V domains shown)
VH: QVQLVQSGPEVKKPGSSVKVSCKASGYTFGHYGISWVRQAPGQGLEWMAWISAYNGNTDSIQKVQGRVTMTTDTSTNTAYLELRSLRSDDTAVYYCVRDVPATGGAATADYWGQGTTVTVSS
VL: DVVMTQSPLSLPVTLGQPASISCRSSQSLVFSDGNTYLSWFQQRPGQSPRRLIYKVSNRDSGVPDRFSASGSGTDFTLKISRVEADDVGVYYCMQVTHWPRTFGQGTRLEIKR
notes: IgG made in Expi293; also called #60; 60
B2: #62m (antibody, V domains shown)
VH: B1 VH with P9A, S16A, T117L
VL: B1 VL with T14P, F31H, N58D, A69G, D86E
notes: Germline-edited (m) form of 5C7, heavy chain edited; IgG; also called 5C7 (modified)
B3: 8A11 (antibody, V domains shown)
VH: B1 VH with P9S, S16A, T117L
VL: B1 VL with R24K, Q27R, F31H, R108K
notes: IgG made in Expi293; also called #63; 63
B4: 5C9 (antibody, V domains shown)
VH: B1 VH with P9S, S16A
VL: B1 VL with R108K
notes: IgG made in Expi293; also called #61; 61
B5: 5C7 (antibody, V domains shown)
VH: B1 VH with V5Q, P9S, S16A, T117L
VL: B1 VL with T14P, F31H, N58D, A69G, D86E
notes: IgG made in Expi293; also called #62; 62
B6: 9H4 (antibody, V domains shown)
VH: QVQLVQSGGGLVQPGGSLRISCTASGFTFRNYEMNWVRQAPGKGLEWVAYISSSGSSRYYADSVKGRFTISRDNAKNSLFLQMNSLRAEDMAVYYCARTDDGSSWFVSTSSFYGMDVWGQGTTVTVSS
VL: EIVLTQSPGIQSLSPGETATLSCRASESISSSYFAWYQQKPGQAPRLLIYGASSRASGIPDRFSGSGSGTDFTLTISRLEPEDFAVYYCQQYGSSPPITFGQGTRLEIKR
notes: IgG made in Expi293; also called #52; 52
B7: #52m (antibody, V domains shown)
VH: B6 VH with Q6E
VL: B6 VL
notes: Germline-edited (m) form of 9H4, heavy chain edited; IgG; also called 9H4 (modified)
B8: 2E7 (antibody, V domains shown)
VH: EVQLVESGGGLVKPGGSLRLSCAGSGFTFSSYTMHWVRQAPGKGLEWVSSITGGSSYVDYSASVKGRFTISRDNAQSSLYLQMNSLRAEDTAVYYCARDDYGSGSYSNWFDPWGQGTLVTVSS
VL: SYELTQPPSASGTPGQRVTISCTGSSSNIGAGYDVHWYQQLPGAAPRLLMFGNSNRPSGVPDRFSGSKSGTSASLAITGLQADDEADYYCQSYDRSLSHVFGTGTKVTVLG
notes: IgG made in Expi293; also called #6
B9: 12A1 (antibody, V domains shown)
VH: B8 VH with V12I, K13Q
VL: QSVLTQPPSVSGAPGQRVTISCTGSSSDIGAGYDVHWYQQLPGTAPKLLIFANTNRPSGVPDRFSGSKSGASASLAITGLQADDEADYYCQSYDRSLSHVFGTGTKVTVLG
notes: IgG made in Expi293; also called #8
B10: #6m (antibody, V domains shown)
VH: B8 VH
VL: B8 VL with S1Q, Y2S, E3V
notes: Germline-edited (m) form of 2E7, light chain edited; IgG; also called 2E7 (modified)
B11: 2H2 (antibody, V domains shown)
VH: B8 VH with E1Q, E6Q, V12I, K13Q
VL: B9 VL with D28N
notes: IgG made in Expi293; also called #7
B12: D25 (antibody, V domains shown)
VH: QVQLVQSGAEVKKPGSSVMVSCQASGGPLRNYIINWLRQAPGQGPEWMGGIIPVLGTVHYAPKFQGRVTITADESTDTAYIHLISLRSEDTAMYYCATETALVVSTTYLPHYFDNWGQGTLVTVSS
VL: DIQMTQSPSSLSAAVGDRVTITCQASQDIVNYLNWYQQKPGKAPKLLIYVASNLETGVPSRFSGSGSGTDFSLTISSLQPEDVATYYCQQYDNLPLTFGGGTKVEIK
B13: #45m (antibody, V domains shown)
VH: QVQLVQSGSEVKKPGASVKVSCKASGYTFTDYGLSWVRQAPGHGLEWMGWITAYNGDTNYAQKFQDRLSVTTDISTSTAYMELRSLKSDDTAVYYCARHVFCSGDGCYSGLGSWGQGTLVTVSS
VL: not shown
notes: Germline-edited (m) form of 4G5, light chain edited; IgG; also called 4G5 (modified)
B14: #49m (antibody, V domains shown)
VH: B13 VH with S9A
VL: QSVLTQPPSASGAPGQRVIISCSGSSSNVGSNTVNWYQQLPGTAPKLLIYDKNERPSGVPDRFSASKSGTSSSLAIGGLRSEDEADYYCATWDDNLNGWVFGGGTKLTVLG
notes: Germline-edited (m) form of 4H7, light chain edited; IgG; also called 4H7 (modified)
B15: 4E9 (antibody, V domains shown)
VH: B13 VH with S9A, A16S
VL: B14 VL with A10V, I19T, A90G
notes: IgG made in Expi293; also called #48; 48
B16: 3E7 (antibody, V domains shown)
VH: B13 VH with Q1E, Q6E, S9T
VL: B14 VL with A90G
notes: IgG made in Expi293; also called #51; 51
B17: #50m (antibody, V domains shown)
VH: B13 VH with S9A
VL: B14 VL with A90G
notes: Germline-edited (m) form of 2F8, light chain edited; IgG; also called 2F8 (modified)
B18: 2E8 (antibody, V domains shown)
VH: B13 VH with S9P, A16S
VL: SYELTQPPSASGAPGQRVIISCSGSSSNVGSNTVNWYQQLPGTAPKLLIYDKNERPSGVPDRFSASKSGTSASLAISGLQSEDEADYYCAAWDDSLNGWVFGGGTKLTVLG
notes: IgG made in Expi293; also called #46; 46
B19: #46m (antibody, V domains shown)
VH: B13 VH with S9P, A16S
VL: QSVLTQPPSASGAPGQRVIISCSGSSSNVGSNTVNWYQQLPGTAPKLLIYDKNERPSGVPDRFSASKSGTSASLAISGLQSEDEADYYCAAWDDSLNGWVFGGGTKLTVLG
notes: Germline-edited (m) form of 2E8, light chain edited; IgG; also called 2E8 (modified)
B20: 4H7 (antibody, V domains shown)
VH: B13 VH with S9A
VL: B14 VL with Q1S, S2Y, V3E
notes: IgG made in Expi293; also called #49; 49
B21: #51m (antibody, V domains shown)
VH: B13 VH with Q1E, S9A
VL: B14 VL with A90G
notes: Germline-edited (m) form of 3E7, heavy chain edited; IgG; also called 3E7 (modified)
B22: 13H9 (antibody, V domains shown)
VH: QVQLVQSGAEVKKPGASVKVSCKASGYTGYTFTDYGLSWVRQAPGHGLEWMGWITAYNGDTNYAQKFQDRLSVTTDISTSTAYMELRSLKSDDTAVYYCARHVFCSGDGCYSGLGSWGQGTLVTVSS
VL: B14 VL with Q1S, S2Y, V3E, T5I, S72A, G77S, R80Q, T91A, N95S, K106E
notes: IgG made in Expi293; also called #47; 47
B23: #47m (antibody, V domains shown)
VH: B22 VH
VL: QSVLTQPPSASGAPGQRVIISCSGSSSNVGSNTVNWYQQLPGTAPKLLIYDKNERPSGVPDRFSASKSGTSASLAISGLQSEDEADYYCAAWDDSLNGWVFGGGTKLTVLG
notes: Germline-edited (m) form of 13H9, light chain edited; IgG; also called 13H9 (modified)

Target: DS-Cav1 (RSV F-protein, pre-form, in-house) (respiratory syncytial virus (RSV), UniProt P03420 26-513)
Assay: ELISA, coated DS-Cav1, IgG titrated

Sequence of DS-Cav1 (RSV F-protein, pre-form, in-house) (P03420 26-524): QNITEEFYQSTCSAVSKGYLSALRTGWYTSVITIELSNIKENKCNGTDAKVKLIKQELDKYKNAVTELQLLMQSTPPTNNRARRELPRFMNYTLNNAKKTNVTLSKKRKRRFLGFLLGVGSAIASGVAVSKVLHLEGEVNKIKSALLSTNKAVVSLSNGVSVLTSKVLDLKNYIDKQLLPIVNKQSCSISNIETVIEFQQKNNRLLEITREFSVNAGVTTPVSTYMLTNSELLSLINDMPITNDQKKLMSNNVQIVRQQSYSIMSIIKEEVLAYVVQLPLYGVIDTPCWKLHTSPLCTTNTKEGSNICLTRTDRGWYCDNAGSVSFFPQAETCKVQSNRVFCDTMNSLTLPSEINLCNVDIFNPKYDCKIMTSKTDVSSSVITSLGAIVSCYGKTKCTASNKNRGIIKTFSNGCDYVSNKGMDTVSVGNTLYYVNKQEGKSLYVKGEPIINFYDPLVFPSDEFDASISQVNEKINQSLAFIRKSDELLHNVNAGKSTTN

Row | Binder | Kd [nM]
1 | B1 | ~1.31
2 | B2 | ~1.27
3 | B3 | ~0.69
4 | B4 | ~0.8
5 | B5 | ~0.84
6 | B6 | ~0.89
7 | B7 | ~0.89
8 | B8 | ~0.4
9 | B9 | ~1.66
10 | B10 | ~2.34
11 | B11 | ~0.44
12 | B12 | ~0.73
13 | B13 | ~0.95
14 | B14 | ~1.11
15 | B15 | ~0.7
16 | B16 | ~0.37
17 | B17 | ~1.08
18 | B18 | ~0.47
19 | B19 | ~1.26
20 | B20 | ~2.15
21 | B21 | ~1.26
22 | B22 | ~0.61
23 | B23 | ~0.94
